Results published in US20150210756A1 (NEW YORK UNIVERSITY, published 2015).

Target: T1, LukE (S. aureus, UniProt Q2FXB0 24-306)
T1 construct: also called leukotoxin E
Assay: ELISA after cis-display panning

Binder | binding result
Luk30 (designed binder, not shown: C-terminal poly-histidine tag) LPAPKNLVVSRVTEDSARLSWAFNWNYFAFDSFLIQYQESEKVGEAIVLTVPGSERSYDLTGLKPGTEYTVSIYGVVALNTGNKKSNPLSAIFTT | binds
Luk33 (designed binder, not shown: C-terminal poly-histidine tag) LPAPKNLVVSRVTEDSARLSWTAPDAAFDSFLIQYQESEKVGEAIVLTVPGSERSYDLTGLKPGTEYTVSIYGVAFIPDEIEFSNPLSAIFTT | binds
Luk35 (designed binder, not shown: C-terminal poly-histidine tag) LPAPKNLVVSRVTEDSARLSWTAPDAAFDSFLIQYQESEKVGEAIVLTVPGSERSYDLTGLKPGTEYTVSIYGVAHIPWEFEWSKPLSAIFTT | binds
Luk36 (designed binder, not shown: C-terminal poly-histidine tag) LPAPKNLVVSRVTEDSARLSWTAPDAAFDSFLIQYQESEKVGEAIVLTVPGSERSYDLTGLKPGTEYTVSIYGVADVPDEYEFSNPLSAIFTT | binds
Luk34 (designed binder, not shown: C-terminal poly-histidine tag) LPAPKNLVVSRVTEDSARLSWTAPDAAFDSFLIQYQESEKVGEAIVLTVPGSERSYDLTGPKPGTEYTVSIYGVVVVPHEFEFSNPLSAIFTT | binds
Luk27 (designed binder, also called anti-LukE FN3 domain Luk27; not shown: C-terminal poly-histidine tag) LPAPKNLVVSRVTEDSARLSWTAPDAAFDSFPIVYQEWQFYGEAIVLTVPGSERSYDLTGLKPGTEYLVDIYGVKGGSWSYPLSAIFTT | binds
Luk29 (designed binder, not shown: C-terminal poly-histidine tag) LPAPKNLVVSRVTEDSARLSWDEQFVSNFDSFLIQYQESEKVGEAIVLTVPGSERSYDLTGLKPGTEYTVSIYGVFVPWDGFSEINYSNPLSAIFTT | binds
Luk60 (designed binder, not shown: C-terminal poly-histidine tag) LPAPKNLVVSRVTEDSARLSWTAPDAAFDSFDIQYWEWWPFGEAIVLTVPGSERSYDLTGLKPGTEYGVIILGVKGGFRSTPLSAIFTT | binds
Luk50 (designed binder, not shown: C-terminal poly-histidine tag) LPAPKNLVVSRVTEDSARLSWTAPDAAFDSFVIPYSEWWPVGEAIVLTVPGSERSYDLTGLKPGTEYGVYIVGVKGGTWSAPLSAIFTT | binds
Luk48 (designed binder, not shown: C-terminal poly-histidine tag) LPAPKNLVVSRVTEDSARLSWTAPDAAFDSFHIEYGEWWPTGEAIVLTVPGSERSYDLTGLKPGTEYGVLIVGVKGGFRSSPLSAIFTT | binds
Luk28 (designed binder, not shown: C-terminal poly-histidine tag) LPAPKNLVVSRVTEDSARLSWTAPDAAFDSFAIQYWEWWPPGEAIVLTVPGSERSYDLTGLKPGTEYGVIILGVKGGWYSNPLSAIFTT | binds
Luk32 (designed binder, not shown: C-terminal poly-histidine tag) LPAPKNLVVSRVTEDSARLSWYHENAYLLFDSFLIQYQESEKVGEAIVLTVPGSERSYDLTGLKPGTEYTVSIYGVVYDLTPEKRSSNPLSAIFTT | binds
Luk26 (designed binder, also called anti-LukE FN3 domain Luk26; not shown: C-terminal poly-histidine tag) LPAPKNLVVSRVTEDSARLSWTAPDAAFDSFHIEYAEPWVWGEAIVLTVPGSERSYDLTGLKPGTEYVVFIGGVKGGHNSTPLSAIFTT | binds
Luk37 (designed binder, not shown: C-terminal poly-histidine tag) LPAPKNLVVSRVTEDSARLSWTAPDAAFDSFLIQYQESEKVGEAIVLTVPGSERSYDLTGLKPGTEYTVSIYGVVGWPLFIQSNPLSAIFTT | binds
Luk31 (designed binder, not shown: C-terminal poly-histidine tag) LPAPNNLVVSRVTEDSARLSWDWDKYYTNRFDSFLIQYQESEKVGEAIVLTVPGSERSYDLTGLKPGTEYTVSIYGVLVRDYIRAAEWYSNPLSAIFTT | binds
